Experiment [1] has as its target T1, human EGFR-His antigen (human, UniProt P00533 25-645).
T1 construct: also called hEGFR-His
Nature of the experiment: SPR Biacore 8K, antibody on Protein A chip, 1:1 fit. In general terms: In SPR one partner is held on a chip, and binding of the other changes the refractive index at the surface.

Experiment [2] addresses T1, human EGFR-His antigen. Described as above. The source holds these as a separate data set.
Experiment [3] concerns the target T2, cyno MUC1-C on stably transfected CHOK1 cells (cyno).
T2 construct: domain: MUC1-C; also called CHOK1-cyno-MUC1-C cells; Monkey MUC1-CT
Nature of the experiment: FACS, CHOK1-cyno-MUC1-C. For orientation: Flow cytometry measures light scatter and fluorescence of single cells or particles in a stream.

Read-outs that look alike come from different tables or passages of the source.

B1: ZalH2 (antibody, human IgG1, kappa, V domains shown)
VH: QVQLVESGGGVVQPGRSLRLSCAASGFTFSTYGMHWVRQAPGKGLEWVAVIWEDGSYKYYGDSVKGRFTISRDNSKNTLYLQMNSLRAEDTAVYYCARDGITMVRGVMKDYFDYWGQGTLVTVSS
VL: DIQLTQSPSSLSASVGDRVTITCRASQDISSALVWYQQKPGKAPKLLIYDASSLESGVPSRFSGSESGTDFTLTISSLQPEDFATYYCQQFNSYPLTFGGGTKVEIKR
notes: anti-EGFR zalutumumab variant, human IgG1
The term Kd denotes the equilibrium constant for the complex coming apart. Read a low Kd as tighter binding. The koff is the rate constant with which the complex falls apart. Read a high koff as a short-lived complex. A word on the kon: it is the second-order rate constant of association. As for B1, in experiment [1], the affinity, expressed as Kd, was 92.9 nM; the koff came to 0.00812 s⁻¹; the kon was 87400 M⁻¹ s⁻¹.

B2: ZalH13 (antibody, human IgG1, kappa, V domains shown)
VH: QVQLVESGGGVVQPGRSLRLSCAASGFTFSSYAMHWVRQAPGKGLEWVAVIWDDGSYKYYGDSVKGRFTISRDNSKNTLYLQMNSLRAEDTAVYYCARDGITMVRGVMKDYFDYWGQGTLVTVSS
VL: DIQLTQSPSSLSASVGDRVTITCRASQDISSALVWYQQKPGKAPKLLIYDASSLESGVPSRFSGSESGTDFTLTISSLQPEDFATYYCQQFNSYPLTFGGGTKVEIKR
notes: as for B1
Consider B2, for which, in experiment [1], the Kd came out at 1.96 nM, the koff is 0.000187 s⁻¹ and the association rate constant (kon) was found to be 95500 M⁻¹ s⁻¹.

B3: ZalH14 (antibody, human IgG1, kappa, V domains shown)
VH: QVQLVESGGGVVQPGRSLRLSCAASGFTFSTYGMHWVRQAPGKGLEWVAVIWYDGSNKYYADSVKGRFTISRDNSKNTLYLQMNSLRAEDTAVYYCARDGITMVRGVMKDYFDYWGQGTLVTVSS
VL: DIQLTQSPSSLSASVGDRVTITCRASQDISSALVWYQQKPGKAPKLLIYDASSLESGVPSRFSGSESGTDFTLTISSLQPEDFATYYCQQFNSYPLTFGGGTKVEIKR
notes: as for B1
Regarding B3, in experiment [1], the Kd was found to be 210 nM, the koff is 0.0275 s⁻¹ and the kon is 131000 M⁻¹ s⁻¹.

B4: ZalH12 (antibody, human IgG1, kappa, V domains shown)
VH: QVQLVESGGGVVQPGRSLRLSCAASGFTFSTYGMHWVRQAPGKGLEWVAVIWDDGSNKYYGDSVKGRFTISRDNSKNTLYLQMNSLRAEDTAVYYCARDGITMVRGVMKDYFDYWGQGTLVTVSS
VL: DIQLTQSPSSLSASVGDRVTITCRASQDISSALVWYQQKPGKAPKLLIYDASSLESGVPSRFSGSESGTDFTLTISSLQPEDFATYYCQQFNSYPLTFGGGTKVEIKR
notes: as for B1
As for B4, in experiment [1], the affinity, expressed as Kd, was 120 nM; the koff stood at 0.0144 s⁻¹; the kon worked out at 120000 M⁻¹ s⁻¹.

B5: ZalH9 (antibody, human IgG1, kappa, V domains shown)
VH: QVQLVESGGGVVQPGRSLRLSCAASGFTFSSYGMHWVRQAPGKGLEWVAVIWDDGSYKYYGDSVKGRFTISRDNSKNTLYLQMNSLRAEDTAVYYCARDGVTMVRGVMKDYFDYWGQGTLVTVSS
VL: DIQLTQSPSSLSASVGDRVTITCRASQDISSALVWYQQKPGKAPKLLIYDASSLESGVPSRFSGSESGTDFTLTISSLQPEDFATYYCQQFNSYPLTFGGGTKVEIKR
notes: as for B1
Turning to B5, in experiment [1], the Kd was 51.6 nM, the koff was 0.00234 s⁻¹ and the kon is 45400 M⁻¹ s⁻¹.

B6: ZalH10 (antibody, human IgG1, kappa, V domains shown)
VH: QVQLVESGGGVVQPGRSLRLSCAASGFTFSSYGMHWVRQAPGKGLEWVAVIWDDGSYKYYGDSVKGRFTISRDNSKNTLYLQMNSLRAEDTAVYYCARDGATMVRGVMKDYFDYWGQGTLVTVSS
VL: DIQLTQSPSSLSASVGDRVTITCRASQDISSALVWYQQKPGKAPKLLIYDASSLESGVPSRFSGSESGTDFTLTISSLQPEDFATYYCQQFNSYPLTFGGGTKVEIKR
notes: as for B1
In experiment [1], B6 displayed a Kd of 133 nM, a dissociation rate constant (koff) of 0.0174 s⁻¹ and a kon of 131000 M⁻¹ s⁻¹.

B7: ZalH3 (antibody, human IgG1, kappa, V domains shown)
VH: QVQLVESGGGVVQPGRSLRLSCAASGFTFSTYGMHWVRQAPGKGLEWVAVIWDDGSYKYYGDSVKGRFTISRDNSKNTLYLQMNSLRAEDTAVYYCARDGLTMVRGVMKDYFDYWGQGTLVTVSS
VL: DIQLTQSPSSLSASVGDRVTITCRASQDISSALVWYQQKPGKAPKLLIYDASSLESGVPSRFSGSESGTDFTLTISSLQPEDFATYYCQQFNSYPLTFGGGTKVEIKR
notes: as for B1
B7: in experiment [1], the Kd is 302 nM, the koff turned out to be 0.0243 s⁻¹ and the kon came to 80500 M⁻¹ s⁻¹.

B8: ZalH8 (antibody, human IgG1, kappa, V domains shown)
VH: QVQLVESGGGVVQPGRSLRLSCAASGFTFSSYGMHWVRQAPGKGLEWVAVIWDDGSYKYYGDSVKGRFTISRDNSKNTLYLQMNSLRAEDTAVYYCARDGLTMVRGVMKDYFDYWGQGTLVTVSS
VL: DIQLTQSPSSLSASVGDRVTITCRASQDISSALVWYQQKPGKAPKLLIYDASSLESGVPSRFSGSESGTDFTLTISSLQPEDFATYYCQQFNSYPLTFGGGTKVEIKR
notes: as for B1
For the molecule B8, in experiment [1], the affinity, expressed as Kd, was 483 nM; the koff was determined as 0.0369 s⁻¹; the kon is 76500 M⁻¹ s⁻¹.

B9: ZalH7 (antibody, human IgG1, kappa, V domains shown)
VH: QVQLVESGGGVVQPGRSLRLSCAASGFTFSSYGMHWVRQAPGKGLEWVAVIWEDGSYKYYGDSVKGRFTISRDNSKNTLYLQMNSLRAEDTAVYYCARDGITMVRGVMKDYFDYWGQGTLVTVSS
VL: DIQLTQSPSSLSASVGDRVTITCRASQDISSALVWYQQKPGKAPKLLIYDASSLESGVPSRFSGSESGTDFTLTISSLQPEDFATYYCQQFNSYPLTFGGGTKVEIKR
notes: as for B1
As for B9, in experiment [1], binding was characterised by a dissociation constant (Kd) of 95.7 nM, the koff came out at 0.00761 s⁻¹ and the kon was 79500 M⁻¹ s⁻¹.

B10: ZalH5 (antibody, human IgG1, kappa, V domains shown)
VH: QVQLVESGGGVVQPGRSLRLSCAASGFTFSTYGMHWVRQAPGKGLEWVAVIWDDGSYKYYGDSVKGRFTISRDNSKNTLYLQMNSLRAEDTAVYYCARDGATMVRGVMKDYFDYWGQGTLVTVSS
VL: DIQLTQSPSSLSASVGDRVTITCRASQDISSALVWYQQKPGKAPKLLIYDASSLESGVPSRFSGSESGTDFTLTISSLQPEDFATYYCQQFNSYPLTFGGGTKVEIKR
notes: as for B1
For B10, in experiment [1], the Kd came out at 96.4 nM, the koff is 0.0125 s⁻¹ and the kon was 129000 M⁻¹ s⁻¹.

B11: M4H1L1-ZalH′ (bispecific antibody, human IgG1, kappa)
heavy: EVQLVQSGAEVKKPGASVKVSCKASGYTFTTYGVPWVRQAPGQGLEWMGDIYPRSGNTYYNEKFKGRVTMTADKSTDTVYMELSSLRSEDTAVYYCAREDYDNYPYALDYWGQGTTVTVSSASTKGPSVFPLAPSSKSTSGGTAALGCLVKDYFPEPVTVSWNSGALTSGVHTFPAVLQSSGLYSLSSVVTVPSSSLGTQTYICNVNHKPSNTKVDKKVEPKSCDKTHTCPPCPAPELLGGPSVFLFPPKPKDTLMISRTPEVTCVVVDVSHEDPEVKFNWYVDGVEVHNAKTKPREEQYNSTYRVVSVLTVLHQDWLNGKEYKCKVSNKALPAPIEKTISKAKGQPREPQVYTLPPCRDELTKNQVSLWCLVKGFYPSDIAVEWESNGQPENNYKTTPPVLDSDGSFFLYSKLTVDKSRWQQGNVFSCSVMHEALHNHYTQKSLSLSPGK
light: DIQMTQSPSSLSASVGDRVTITCSASSSVFNMNWYQQKPGKSPKLWIYDISKLASGVPSRFSGSGSGTDFTLTISSLQPEDFATYYCQQRSFYPPTFGGGTKVEIKRTVAAPSVFIFPPSDEQLKSGTASVVCLLNNFYPREAKVQWKVDNALQSGNSQESVTEQDSKDSTYSLSSTLTLSKADYEKHKVYACEVTHQGLSSPVTKSFNRGEC
chain 1: not shown
chain 2: DIQLTQSPSSLSASVGDRVTITCRASQDISSALVWYQQKPGKAPKLLIYDASSLESGVPSRFSGSESGTDFTLTISSLQPEDFATYYCQQFNSYPLTFGGGTKVEIKGGGGSSGAPRFLTRPKASVVSVGKDATLSCQIVGNPFPQVSWEKDKQPVTAGVRFRLAQDGDLYRLKILDLQLSDSGQYVCRARNAHGEAFACLGLQVDAEA
notes: 1:1 format: MUC1 Fab arm with Fc knob; EGFR arm VH-linker-Titin-Fc hole paired with VL-linker-Obscurin; also called anti-EGFR-MUC1 bispecific antibody
In experiment [2], B11 registered a Kd of 4.13 nM, a koff of 0.00072 s⁻¹ and a kon of 174000 M⁻¹ s⁻¹.

B12: M4H1L1-ZalH8 (bispecific antibody, human IgG1, kappa)
heavy: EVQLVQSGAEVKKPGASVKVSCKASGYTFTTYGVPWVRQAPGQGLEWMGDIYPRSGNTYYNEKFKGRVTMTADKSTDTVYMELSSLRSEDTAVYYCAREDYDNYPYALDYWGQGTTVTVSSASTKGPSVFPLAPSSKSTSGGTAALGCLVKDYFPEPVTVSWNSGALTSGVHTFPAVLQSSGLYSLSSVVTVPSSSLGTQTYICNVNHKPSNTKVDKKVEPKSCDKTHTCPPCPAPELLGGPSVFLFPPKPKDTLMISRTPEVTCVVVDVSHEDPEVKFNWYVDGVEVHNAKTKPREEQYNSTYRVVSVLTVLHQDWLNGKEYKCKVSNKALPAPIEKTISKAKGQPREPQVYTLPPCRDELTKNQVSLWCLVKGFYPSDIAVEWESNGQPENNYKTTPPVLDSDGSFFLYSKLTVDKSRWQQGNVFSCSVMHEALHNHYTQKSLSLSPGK
light: DIQMTQSPSSLSASVGDRVTITCSASSSVFNMNWYQQKPGKSPKLWIYDISKLASGVPSRFSGSGSGTDFTLTISSLQPEDFATYYCQQRSFYPPTFGGGTKVEIKRTVAAPSVFIFPPSDEQLKSGTASVVCLLNNFYPREAKVQWKVDNALQSGNSQESVTEQDSKDSTYSLSSTLTLSKADYEKHKVYACEVTHQGLSSPVTKSFNRGEC
chain 1: not shown
chain 2: DIQLTQSPSSLSASVGDRVTITCRASQDISSALVWYQQKPGKAPKLLIYDASSLESGVPSRFSGSESGTDFTLTISSLQPEDFATYYCQQFNSYPLTFGGGTKVEIKGGGGSSGAPRFLTRPKASVVSVGKDATLSCQIVGNPFPQVSWEKDKQPVTAGVRFRLAQDGDLYRLKILDLQLSDSGQYVCRARNAHGEAFACLGLQVDAEA
notes: as for B11
Regarding B12, in experiment [2], binding was characterised by a dissociation constant (Kd) of 162 nM, the koff was 0.0275 s⁻¹ and the kon turned out to be 171000 M⁻¹ s⁻¹.

B13: M4H1L1-ZalH13 (bispecific antibody, human IgG1, kappa)
heavy: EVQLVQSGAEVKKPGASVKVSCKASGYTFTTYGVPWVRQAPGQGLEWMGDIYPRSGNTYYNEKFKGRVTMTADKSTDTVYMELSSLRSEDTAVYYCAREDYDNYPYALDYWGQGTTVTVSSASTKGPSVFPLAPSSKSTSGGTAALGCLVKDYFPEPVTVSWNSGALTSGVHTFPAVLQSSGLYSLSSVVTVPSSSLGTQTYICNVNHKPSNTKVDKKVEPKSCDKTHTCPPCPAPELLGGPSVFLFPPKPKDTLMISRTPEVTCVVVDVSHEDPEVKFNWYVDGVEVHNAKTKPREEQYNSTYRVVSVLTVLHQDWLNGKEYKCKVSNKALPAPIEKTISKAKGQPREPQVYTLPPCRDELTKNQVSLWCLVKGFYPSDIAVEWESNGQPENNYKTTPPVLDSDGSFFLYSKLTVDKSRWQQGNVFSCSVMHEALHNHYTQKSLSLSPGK
light: DIQMTQSPSSLSASVGDRVTITCSASSSVFNMNWYQQKPGKSPKLWIYDISKLASGVPSRFSGSGSGTDFTLTISSLQPEDFATYYCQQRSFYPPTFGGGTKVEIKRTVAAPSVFIFPPSDEQLKSGTASVVCLLNNFYPREAKVQWKVDNALQSGNSQESVTEQDSKDSTYSLSSTLTLSKADYEKHKVYACEVTHQGLSSPVTKSFNRGEC
chain 1: not shown
chain 2: DIQLTQSPSSLSASVGDRVTITCRASQDISSALVWYQQKPGKAPKLLIYDASSLESGVPSRFSGSESGTDFTLTISSLQPEDFATYYCQQFNSYPLTFGGGTKVEIKGGGGSSGAPRFLTRPKASVVSVGKDATLSCQIVGNPFPQVSWEKDKQPVTAGVRFRLAQDGDLYRLKILDLQLSDSGQYVCRARNAHGEAFACLGLQVDAEA
notes: as for B11
In experiment [2], B13 returned a Kd of 0.163 nM, a koff of 4.57e-05 s⁻¹ and a kon of 280000 M⁻¹ s⁻¹.

B14: M4H1L1-ZalH10 (bispecific antibody, human IgG1, kappa)
heavy: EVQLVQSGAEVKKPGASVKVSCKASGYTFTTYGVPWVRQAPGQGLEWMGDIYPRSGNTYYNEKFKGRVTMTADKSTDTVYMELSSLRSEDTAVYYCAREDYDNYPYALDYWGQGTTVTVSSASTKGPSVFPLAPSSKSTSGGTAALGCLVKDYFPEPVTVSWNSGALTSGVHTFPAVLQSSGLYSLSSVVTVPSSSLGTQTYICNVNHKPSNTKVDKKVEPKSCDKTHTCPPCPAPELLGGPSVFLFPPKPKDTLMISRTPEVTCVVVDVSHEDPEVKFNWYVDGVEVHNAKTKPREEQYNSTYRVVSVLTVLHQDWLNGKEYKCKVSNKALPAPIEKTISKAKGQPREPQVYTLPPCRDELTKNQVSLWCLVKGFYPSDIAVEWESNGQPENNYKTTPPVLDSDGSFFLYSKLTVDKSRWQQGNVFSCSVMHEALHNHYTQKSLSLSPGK
light: DIQMTQSPSSLSASVGDRVTITCSASSSVFNMNWYQQKPGKSPKLWIYDISKLASGVPSRFSGSGSGTDFTLTISSLQPEDFATYYCQQRSFYPPTFGGGTKVEIKRTVAAPSVFIFPPSDEQLKSGTASVVCLLNNFYPREAKVQWKVDNALQSGNSQESVTEQDSKDSTYSLSSTLTLSKADYEKHKVYACEVTHQGLSSPVTKSFNRGEC
chain 1: not shown
chain 2: DIQLTQSPSSLSASVGDRVTITCRASQDISSALVWYQQKPGKAPKLLIYDASSLESGVPSRFSGSESGTDFTLTISSLQPEDFATYYCQQFNSYPLTFGGGTKVEIKGGGGSSGAPRFLTRPKASVVSVGKDATLSCQIVGNPFPQVSWEKDKQPVTAGVRFRLAQDGDLYRLKILDLQLSDSGQYVCRARNAHGEAFACLGLQVDAEA
notes: as for B11
In experiment [2], B14 displayed a Kd of 56.4 nM, a koff of 0.0113 s⁻¹ and a kon of 201000 M⁻¹ s⁻¹.

B15: ChiF4-1 (antibody, human IgG1, kappa, V domains shown)
VH: QIQLQQSGPELVKPGASVKISCKASGYTFTDNYINWVKQRPGQGLEYIGWIYPGSGNNKFNEKFKGKATLTVDTSSRTAFMQLSSLTFEDSAVYFCARDYPFPSYHYGMDYWGQGTSVTVSS
VL: QILLTQSPAIMSASPGERVTITCSASSSVSYIHWFQQKPGTSPKLWIYSTSNLASGVPPRFSGSGSGTSFSLTVSRMEAEDAATYYCQQRSSYPPTFGGGTKLEIKR
notes: murine variable regions on human IgG1 constant regions; also called chimeric antibody of F4-1
In experiment [3], B15 displayed an Emax of 41700.

B16: ChiF4-18 (antibody, human IgG1, kappa, V domains shown)
VH: EVQLQQSGAELVRPGSSVKMSCKTSGYTFTSYGINWVKQRPGQGLEWIGYIYLGSDYTEYNEKFKGKATLTSDTTSSTAYMQLSSLTSEDSAIYFCARSAGSLFAYWGQGTLVTVSA
VL: DIQLTQSPSSLSASLGERVSLTCRASQDIGITLNWLQQEPDGTIKRLIYATSSLDSGVPKRFSGSRSGSDYSLTISSLESEDFVDYYCLQYASSPYTFGGGTKLEIKR
notes: murine variable regions on human IgG1 constant regions; also called chimeric antibody of F4-18
For B16, the Emax in experiment [3] amounted to 79800.

The values above are taken from patent US20260232830A1 (JIANGSU HENGRUI PHARMACEUTICALS, published 2026).
